Several values for one entry are separate records, joined by “and”; a condition that tells them apart may be missing. Identical values can stand only once.

This assay has as its target BSA (UniProt P02769). Nature of the assay: sandwich ELISA: plate coated with the antibody, BSA as negative sample, detection with sheep anti-HBsAg/peroxidase. In general terms: ELISA stands for enzyme-linked immunosorbent assay.

BSA, sequence (P02769 25-607 limits assumed): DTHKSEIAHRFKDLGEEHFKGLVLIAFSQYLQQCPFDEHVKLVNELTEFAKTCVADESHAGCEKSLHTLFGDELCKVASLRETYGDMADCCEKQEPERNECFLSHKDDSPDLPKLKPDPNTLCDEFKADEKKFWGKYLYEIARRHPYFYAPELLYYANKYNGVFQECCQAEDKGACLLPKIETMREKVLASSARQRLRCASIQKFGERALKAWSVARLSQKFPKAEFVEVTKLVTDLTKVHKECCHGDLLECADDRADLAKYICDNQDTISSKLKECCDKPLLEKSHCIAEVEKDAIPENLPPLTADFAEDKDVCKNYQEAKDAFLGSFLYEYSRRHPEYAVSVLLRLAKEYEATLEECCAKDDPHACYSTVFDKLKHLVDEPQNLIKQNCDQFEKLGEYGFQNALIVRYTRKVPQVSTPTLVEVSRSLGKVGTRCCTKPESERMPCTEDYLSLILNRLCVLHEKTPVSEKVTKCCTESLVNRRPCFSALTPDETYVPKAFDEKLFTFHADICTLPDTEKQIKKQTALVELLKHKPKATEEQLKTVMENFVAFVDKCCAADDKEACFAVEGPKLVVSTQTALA

B1: the antibody of the present invention comprising a heavy-chain variable region having amino acid sequence of SEQ ID NO: 2 and a light-chain variable region … (antibody, V domains shown)
VH: EVQLVESGGGLVKPGGSLRLSCSASGFSLTKYKMTWVRQAPGKGLEWVSSISSTSRDIDYADSVKGRFTISRDNAKNSLFLQMSSLRVDDTAVYYCTRDGWLWGWDVRSNYYYNALDVWGQGTTVTVSS
VL: DIVVTQSPSSLSASVGDRVTITCRASQGIYNSIAWYQQKPGKAPKLLLYSTSTLLSGVPSRFSGSGSGTDYTLTITNLQPEDFATYYCQQYFVTPETFGQGTKLEIKR
In the case of B1, the A450 was 0.251 A450 and 0.263 A450.
